# Measured values from the supplement of paper PMC9112550, “Optimization of the antimicrobial peptide Bac7 by deep mutational scanning” (BMC Biology, 2022).
# Tested on: Escherichia coli TOP10
# Experiment: shrunken log2 fold change of peptide-encoding DNA abundance (4.5 h post-induction vs induction); higher = less antimicrobial activity (less host growth inhibition)
# Conditions: time post-induction: 4.5 h; library: site-saturation at positions 5, 18, 19, 20
# 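Also: peptides expressed intracellularly from a pBAD plasmid library in pooled LB shake-flask culture, induced with 0.3% L-arabinose, DNA abundance read by NGS, three biological replicates, DESeq2 with apeglm shrinkage.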
row,Sequence,shrunken log2 fold change
1,RRIRQRPPRLPRPRPRPKAGPRP,0.0875
2,RRIRVRPPRLPRPRPRPHYMPRP,-1.03
3,RRIRWRPPRLPRPRPRPASIPRP,-0.336
4,RRIRPRPPRLPRPRPRPHAMPRP,-0.0838
5,RRIRNRPPRLPRPRPRPMKEPRP,0.0626
6,RRIRCRPPRLPRPRPRPLYEPRP,-0.43
7,RRIRERPPRLPRPRPRPGVLPRP,-0.177
8,RRIRIRPPRLPRPRPRPPVGPRP,0.59
9,RRIRWRPPRLPRPRPRPKSRPRP,-0.0202
10,RRIRIRPPRLPRPRPRPAFSPRP,-0.155
11,RRIRQRPPRLPRPRPRPMKTPRP,0.0802
12,RRIRQRPPRLPRPRPRPTGLPRP,0.0999
13,RRIRSRPPRLPRPRPRPEKAPRP,-0.193
14,RRIRWRPPRLPRPRPRPREDPRP,0.532
15,RRIRLRPPRLPRPRPRPDVFPRP,-0.165
16,RRIRLRPPRLPRPRPRPHINPRP,-0.645
17,RRIRIRPPRLPRPRPRPKWCPRP,-0.317
18,RRIRQRPPRLPRPRPRPGNRPRP,-0.0286
19,RRIRHRPPRLPRPRPRPTDAPRP,0.0615
20,RRIRDRPPRLPRPRPRPKHDPRP,-0.16
21,RRIRERPPRLPRPRPRPRCTPRP,-0.0287
22,RRIRHRPPRLPRPRPRPSADPRP,-0.428
23,RRIRQRPPRLPRPRPRPMRAPRP,0.235
24,RRIRKRPPRLPRPRPRPAFNPRP,-0.169
25,RRIRHRPPRLPRPRPRPCDAPRP,-0.0305

row,Sequence,shrunken log2 fold change
1,RRIRKRPPRLPRPRPRPQLHPRP,0.0197
2,RRIRSRPPRLPRPRPRPSLAPRP,0.164
3,RRIRVRPPRLPRPRPRPGWVPRP,0.0954
4,RRIRVRPPRLPRPRPRPNHRPRP,-0.199
5,RRIRYRPPRLPRPRPRPYAWPRP,-0.14
6,RRIRTRPPRLPRPRPRPVWQPRP,0.256
7,RRIRHRPPRLPRPRPRPKGKPRP,-0.0894
8,RRIRDRPPRLPRPRPRPTLSPRP,0.262
9,RRIRMRPPRLPRPRPRPPENPRP,-0.0255
10,RRIRHRPPRLPRPRPRPICDPRP,-0.174
11,RRIRLRPPRLPRPRPRPFMAPRP,-0.343
12,RRIRRRPPRLPRPRPRPDYYPRP,-0.0675
13,RRIRDRPPRLPRPRPRPTECPRP,-0.0183
14,RRIRSRPPRLPRPRPRPTSIPRP,-0.102
15,RRIRGRPPRLPRPRPRPYWPPRP,0.0961
16,RRIRARPPRLPRPRPRPVYRPRP,0.144
17,RRIRARPPRLPRPRPRPSFGPRP,1.08
18,RRIRARPPRLPRPRPRPANTPRP,0.0584
19,RRIRLRPPRLPRPRPRPIWHPRP,-0.0382
20,RRIRWRPPRLPRPRPRPRHGPRP,-0.192
21,RRIRYRPPRLPRPRPRPLHGPRP,-0.0615
22,RRIRLRPPRLPRPRPRPKNVPRP,-0.124
23,RRIRRRPPRLPRPRPRPDLHPRP,0.308
24,RRIRWRPPRLPRPRPRPPPVPRP,0.931
25,RRIRPRPPRLPRPRPRPCCLPRP,-0.439

row,Sequence,shrunken log2 fold change
1,RRIRPRPPRLPRPRPRPHYGPRP,-0.569
2,RRIRDRPPRLPRPRPRPGLKPRP,-0.0696
3,RRIRTRPPRLPRPRPRPWSYPRP,-1.86
4,RRIRFRPPRLPRPRPRPSRFPRP,-0.0395
5,RRIRCRPPRLPRPRPRPLYIPRP,-0.882
6,RRIRNRPPRLPRPRPRPTKQPRP,-0.102
7,RRIRYRPPRLPRPRPRPYYNPRP,-0.231
8,RRIRMRPPRLPRPRPRPVRPPRP,1.76
9,RRIRWRPPRLPRPRPRPRHWPRP,0.0523
10,RRIRIRPPRLPRPRPRPVWWPRP,0.0779
11,RRIRARPPRLPRPRPRPFTFPRP,-0.0365
12,RRIRSRPPRLPRPRPRPEGMPRP,0.392
13,RRIRRRPPRLPRPRPRPIIHPRP,-0.584
14,RRIRERPPRLPRPRPRPIMNPRP,-1.02
15,RRIRQRPPRLPRPRPRPVKSPRP,0.169
16,RRIRDRPPRLPRPRPRPPEDPRP,0.402
17,RRIRLRPPRLPRPRPRPINAPRP,-0.177
18,RRIRKRPPRLPRPRPRPNRMPRP,0.00972
19,RRIRYRPPRLPRPRPRPVFWPRP,0.11
20,RRIRMRPPRLPRPRPRPEFCPRP,1.18
21,RRIRVRPPRLPRPRPRPTQNPRP,0.693
22,RRIRLRPPRLPRPRPRPNSMPRP,-0.0473
23,RRIRIRPPRLPRPRPRPVAPPRP,0.244
24,RRIRIRPPRLPRPRPRPGPEPRP,0.342
25,RRIRERPPRLPRPRPRPNFAPRP,0.387
